Source: patent US20180244785A1 (MERRIMACK PHARMACEUTICALS, published 2018)
Substitutions are numbered along the chain they refer to. Each block holds one binder with its values, some of them ahead of it.

Legend:
6His-Fc-FGFR4 = target: T1, 6His-Fc-FGFR4 (human, UniProt P22455 144-369); assay: competition ELISA, blocks 6His-Fc-FGFR4 binding to coated FGF2
T1 construct: not shown: 6His tag and Fc as named in '6His-Fc-FGFR'
T1 sequence: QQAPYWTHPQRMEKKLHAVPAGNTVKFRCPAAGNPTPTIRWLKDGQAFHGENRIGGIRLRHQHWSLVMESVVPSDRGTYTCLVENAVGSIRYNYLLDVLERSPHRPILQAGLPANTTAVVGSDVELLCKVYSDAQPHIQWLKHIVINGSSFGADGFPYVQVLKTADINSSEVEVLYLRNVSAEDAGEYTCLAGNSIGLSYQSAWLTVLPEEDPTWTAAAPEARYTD
Description: (§1) ELISA plates were coated with 50 ug/ml Heparin Sulfate (HSPG) (Sigma Aldrich) and incubated overnight at room temperature. Plates were then washed extensively with PBS containing 0.05% v/v Tween20 (PBST). Plates were then blocked with 2.5% BSA in PBST for one hour and washed extensively as before. 40-60 μL of FGF1 or FGF2 was then added to each well at 40 μg/ml and allowed to bind at room temperature for 2 hours. Plates were then washed extensively with PBST as before. Stock solutions of each 6His-Fc-FGFR (FGFR1-4) were prepared at 500 ng/ml in 2% v/v BSA-PBST and each antibody was prepared as a 2×-dilution series in 2% v/v BSA-PBST. Antibodies dilution series and 6His-Fc-FGFR1-4 were diluted in a 1:1 fashion and immediately added to the relative wells of the plate and allowed to bind for 2 hours at room temperature. Plates were washed extensively as before with PBST and the remaining fraction of bound 6His-Fc-FGFR was detected using a polyclonal-anti-His-6-HRP conjugated antibody (Abcam) for one hour at room temperature. After extensive washing with PBST, 50 μl of Pierce Chemiluminescent substrate (Thermo Fisher Scientific, Rockford, USA) was added and plates were measured on an Envision plate reader (Perkin Elmer). Raw data was background corrected and plotted using Prism software. […]

6His-Fc-FGFR1c = target: T2, 6His-Fc-FGFR1c (human, UniProt P11362 141-376); assay: competition ELISA, blocks 6His-Fc-FGFR1c binding to coated FGF2
T2 construct: not shown: 6His tag and Fc as named in '6His-Fc-FGFR'
T2 sequence: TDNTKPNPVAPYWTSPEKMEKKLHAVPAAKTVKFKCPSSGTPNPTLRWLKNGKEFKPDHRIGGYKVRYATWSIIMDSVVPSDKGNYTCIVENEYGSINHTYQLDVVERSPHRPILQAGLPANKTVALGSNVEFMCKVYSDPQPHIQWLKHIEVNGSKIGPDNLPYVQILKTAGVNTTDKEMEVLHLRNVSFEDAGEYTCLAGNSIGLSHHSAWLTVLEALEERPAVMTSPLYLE
Description: as §1

FGFR1 on tumour cells = FGFR1 on tumour cells (UniProt P11362 22-822); assay: cell-based or functional assay
[1] = target: soluble FGFR2c receptor protein (human, UniProt P21802 148-377); assay: BLI Octet RED96, antibody on anti-hIgG Fc tip
Description: (§2) Briefly, the Pall ForteBio Octet RED96 Bio-Layer Interferometry system was used to determine the specificity of anti-FGFR antibodies for FGFR1c, FGFR2c, FGFR3c, and FGFR4. The antibodies and soluble receptor proteins were prepared in PBS at a concentration of 300 nM. First, the candidate antibodies were immobilized on the surface of anti-human IgG Fc biosensor tips for 120 seconds. After immobilization, the biosensors were dipped in PBS solution for 60 seconds (baseline step) to assess assay drift, and determine loading level of antibodies. The baseline step was followed by an association step of 300 seconds wherein the binding interaction between the immobilized antibodies and soluble receptors was measured. Following the association step, the biosensors were dipped into PBS buffer for 600 seconds to measure the dissociation of the bound receptor proteins from the immobilized antibodies. Each binding response was measured and reported real time on a sensorgram trace. For data analysis, a simple 1:1 binding model was used which measures the rate of complex formation of one immobilized antibody and one soluble receptor protein.

[2] = target: T3, soluble FGFR4 receptor protein (human, UniProt P22455 144-369); assay: BLI Octet RED96, antibody on anti-hIgG Fc tip
T3 sequence: T1 sequence
Description: as §2

[3] = target: T4, soluble FGFR1c receptor protein (human, UniProt P11362 141-376); assay: BLI Octet RED96, antibody on anti-hIgG Fc tip
T4 sequence: T2 sequence
Description: as §2

[4] = target: T5, soluble FGFR3c receptor protein (human, UniProt P22607 141-372); assay: BLI Octet RED96, antibody on anti-hIgG Fc tip
T5 sequence: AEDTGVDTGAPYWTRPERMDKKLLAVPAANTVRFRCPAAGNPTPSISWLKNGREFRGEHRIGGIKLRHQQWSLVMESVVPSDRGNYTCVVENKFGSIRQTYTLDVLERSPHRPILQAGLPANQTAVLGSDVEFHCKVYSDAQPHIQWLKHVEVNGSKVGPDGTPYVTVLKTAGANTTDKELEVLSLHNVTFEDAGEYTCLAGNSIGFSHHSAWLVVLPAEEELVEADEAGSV
Description: as §2

Chain of soluble FGFR2c receptor protein (P21802 148-377): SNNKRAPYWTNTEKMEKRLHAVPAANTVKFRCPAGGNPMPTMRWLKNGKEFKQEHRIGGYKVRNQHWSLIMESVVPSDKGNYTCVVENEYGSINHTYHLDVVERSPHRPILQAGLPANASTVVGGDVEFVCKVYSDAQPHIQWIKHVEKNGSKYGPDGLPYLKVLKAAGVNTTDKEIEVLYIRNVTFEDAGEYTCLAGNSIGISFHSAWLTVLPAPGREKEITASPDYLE
Chain of FGFR1 on tumour cells (P11362 22-822): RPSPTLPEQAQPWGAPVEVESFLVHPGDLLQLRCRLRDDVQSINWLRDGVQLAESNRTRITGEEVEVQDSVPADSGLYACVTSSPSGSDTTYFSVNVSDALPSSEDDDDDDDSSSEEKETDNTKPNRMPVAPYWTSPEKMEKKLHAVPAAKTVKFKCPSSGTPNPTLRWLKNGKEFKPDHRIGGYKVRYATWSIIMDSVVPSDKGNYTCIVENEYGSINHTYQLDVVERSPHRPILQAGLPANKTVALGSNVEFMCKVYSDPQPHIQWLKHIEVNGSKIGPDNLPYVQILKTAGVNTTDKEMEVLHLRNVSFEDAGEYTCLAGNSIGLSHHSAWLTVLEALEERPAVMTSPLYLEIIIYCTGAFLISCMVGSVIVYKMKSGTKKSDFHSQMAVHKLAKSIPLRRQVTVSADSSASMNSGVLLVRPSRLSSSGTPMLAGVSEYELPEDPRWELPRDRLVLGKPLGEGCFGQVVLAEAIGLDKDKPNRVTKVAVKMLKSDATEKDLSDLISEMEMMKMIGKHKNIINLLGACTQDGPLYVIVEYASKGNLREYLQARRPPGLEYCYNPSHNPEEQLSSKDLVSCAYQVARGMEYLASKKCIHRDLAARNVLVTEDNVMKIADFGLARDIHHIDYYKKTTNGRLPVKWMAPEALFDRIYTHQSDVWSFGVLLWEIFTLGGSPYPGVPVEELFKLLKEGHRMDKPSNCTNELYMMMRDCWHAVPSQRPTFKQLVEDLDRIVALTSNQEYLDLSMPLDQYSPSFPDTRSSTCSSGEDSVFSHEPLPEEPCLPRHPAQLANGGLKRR

B1: Ab59 (antibody, human IgG2, kappa, V domains shown)
VH: EVQLLESGGGVVQPGRSLRLSCAASGFTFSSYAMHWVRQAPGKGLEWVAVISYDGSNKYYADSVKGRFTISRDNSKNTLSLQMNSLRVEDTAIYYCVRGAGRGYPYGPDGFDIWGQGTMVTVSS
VL: DIVMTQTPLSLSVTPGQPASISCTSSRSLLHSDGKTYVYWYVQKSGQPPQLLIYELSNRFSGVPDRFSGSGSRTDFTLKISRVEAEDVGVYYCMQYIEAPLTFGGGTKVEIKR
notes: format in the assays not spelled out
- IC50 (6His-Fc-FGFR4): ~6.86 nM
- IC50 (6His-Fc-FGFR1c): 2.22 nM

B4: Ab83 (antibody, human IgG2, kappa, V domains shown)
VH: B1 VH with Y104F
VL: B1 VL with T24K
notes: as for B1
- IC50 (6His-Fc-FGFR4): 154 nM
- IC50 (6His-Fc-FGFR1c): 9.23 nM

B10: Ab49 (antibody, human IgG2, kappa, V domains shown)
VH: B1 VH
VL: B1 VL with T24R
notes: as for B1
- IC50 (6His-Fc-FGFR4): 18.4 nM
- IC50 (6His-Fc-FGFR1c): 4.67 nM

B12: Ab16 (antibody, human IgG2, kappa, V domains shown)
VH: B1 VH with P105T, Y106R
VL: B1 VL with T24K
notes: as for B1
- IC50 of pERK inhibition (AlphaScreen SureFire) in NCI-H1581 cells (FGFR1 on tumour cells): 3.88 nM
- IC50 (6His-Fc-FGFR4): 40.1 nM
- IC50 (6His-Fc-FGFR1c): 6.28 nM

B13: Ab76 (antibody, human IgG2, kappa, V domains shown)
VH: B1 VH with T28D, S30A, S31G, Y104L, P105T
VL: B1 VL with T24K
notes: as for B1
- IC50 (6His-Fc-FGFR4): 37.3 nM
- IC50 (6His-Fc-FGFR1c): 6.3 nM

B15: Ab88 (antibody, human IgG2, kappa, V domains shown)
VH: B1 VH with Y104L, P105T
VL: B1 VL with T24K, V38L
notes: as for B1
- IC50 (6His-Fc-FGFR4): 19 nM
- IC50 (6His-Fc-FGFR1c): 8.02 nM

B17: Ab51 (antibody, human IgG2, kappa, V domains shown)
VH: B1 VH with Y104F
VL: B1 VL with T24R
notes: as for B1
- IC50 (6His-Fc-FGFR4): 21.1 nM
- IC50 (6His-Fc-FGFR1c): 3.86 nM

B19: Ab89 (antibody, human IgG2, kappa, V domains shown)
VH: B1 VH with Y104F
VL: B1 VL with T24R, A99V
notes: as for B1
- IC50 (6His-Fc-FGFR4): 27.4 nM
- IC50 (6His-Fc-FGFR1c): 11.1 nM

B20: Ab70 (antibody, human IgG2, kappa, V domains shown)
VH: B1 VH with R102Q
VL: B1 VL with T24K
notes: as for B1
- IC50 (6His-Fc-FGFR4): 19.8 nM
- IC50 (6His-Fc-FGFR1c): 4.59 nM

B23: Ab27 (antibody, human IgG2, kappa, V domains shown)
VH: B1 VH with P105T, Y106L
VL: B1 VL with T24K
notes: as for B1
- IC50 of pERK inhibition (AlphaScreen SureFire) in NCI-H1581 cells (FGFR1 on tumour cells): 1.77 nM
- IC50 (6His-Fc-FGFR4): 30.1 nM
- IC50 (6His-Fc-FGFR1c): 5.45 nM

B25: Vk10 combined with the VH of Ab15 (antibody, V domains shown)
VH: B1 VH with P105T
VL: DIVMTQSPDSLAVSLGERATISCTSSRSLLHSDGKTYVYWYQQKPGQPPKLLIYELSNRFSGVPDRFSGSGSRTDFTLTISSLQAEDVAVYYCMQYIEAPLTFGGGTKVEIK
notes: captured on anti-human IgG Fc tips
- Kd [1]: 6.49 nM
- koff [1]: 0.00142 s⁻¹
- kon [1]: 220000 M⁻¹ s⁻¹
- Kd [2]: 4.43 nM
- koff [2]: 0.000585 s⁻¹
- kon [2]: 132000 M⁻¹ s⁻¹
- Kd [3]: 5.33 nM
- koff [3]: 0.000294 s⁻¹
- kon [3]: 55200 M⁻¹ s⁻¹
- Kd [4]: 5.23 nM
- koff [4]: 0.000701 s⁻¹
- kon [4]: 134000 M⁻¹ s⁻¹

Next, values leading:

- IC50 (6His-Fc-FGFR4): 13.4 nM
- IC50 (6His-Fc-FGFR1c): 3.18 nM
B2: Ab65 (antibody, human IgG2, kappa, V domains shown)
VH: B1 VH
VL: B1 VL
notes: as for B1

- IC50 (6His-Fc-FGFR4): 11.6 nM
- IC50 (6His-Fc-FGFR1c): 1.77 nM
B3: Ab72 (antibody, human IgG2, kappa, V domains shown)
VH: B1 VH with R102M, Y104L, P105T
VL: B1 VL with T24K
notes: as for B1

- IC50 (6His-Fc-FGFR4): 17.4 nM
- IC50 (6His-Fc-FGFR1c): 12.2 nM
B5: Ab63 (antibody, human IgG2, kappa, V domains shown)
VH: B1 VH with Y106H
VL: B1 VL
notes: as for B1

- IC50 of pERK inhibition (AlphaScreen SureFire) in NCI-H1581 cells (FGFR1 on tumour cells): 0.54 nM
- IC50 (6His-Fc-FGFR4): 5.41 nM
- IC50 (6His-Fc-FGFR1c): 4.19 nM
B6: Ab29 (antibody, human IgG2, kappa, V domains shown)
VH: B1 VH with R102L, Y104W
VL: B1 VL with I97V
notes: as for B1

- IC50 (6His-Fc-FGFR4): 13.6 nM
- IC50 (6His-Fc-FGFR1c): 3.03 nM
B7: Ab56 (antibody, human IgG2, kappa, V domains shown)
VH: B1 VH with R102M, Y104L, P105T
VL: B1 VL
notes: as for B1

- IC50 (6His-Fc-FGFR4): 10 nM
- IC50 (6His-Fc-FGFR1c): 6.62 nM
B8: Ab43 (antibody, human IgG2, kappa, V domains shown)
VH: B1 VH
VL: B1 VL with T24R
notes: as for B1

- IC50 (6His-Fc-FGFR4): 12.8 nM
- IC50 (6His-Fc-FGFR1c): 5.36 nM
B9: Ab67 (antibody, human IgG2, kappa, V domains shown)
VH: B1 VH with Y104F
VL: B1 VL
notes: as for B1

- IC50 (6His-Fc-FGFR4): 9.87 nM
- IC50 (6His-Fc-FGFR1c): 3.53 nM
B11: Ab41 (antibody, human IgG2, kappa, V domains shown)
VH: B1 VH with R102L, Y104F
VL: B1 VL with T24R
notes: as for B1

- IC50 (6His-Fc-FGFR4): 5.67 nM
- IC50 (6His-Fc-FGFR1c): 2.96 nM
B14: Ab68 (antibody, human IgG2, kappa, V domains shown)
VH: B1 VH with R102L, Y106N
VL: B1 VL
notes: as for B1

- IC50 (6His-Fc-FGFR4): 17.5 nM
- IC50 (6His-Fc-FGFR1c): 4.85 nM
B16: Ab40 (antibody, human IgG2, kappa, V domains shown)
VH: B1 VH with R102M, Y104L, P105T
VL: B1 VL with T24R
notes: as for B1

- IC50 (6His-Fc-FGFR4): 10.4 nM
- IC50 (6His-Fc-FGFR1c): 2.7 nM
B18: Ab82 (antibody, human IgG2, kappa, V domains shown)
VH: B1 VH with R102L, Y104F, Y106F
VL: B1 VL with T24K
notes: as for B1

- IC50 of pERK inhibition (AlphaScreen SureFire) in NCI-H1581 cells (FGFR1 on tumour cells): 1.64 nM
- IC50 (6His-Fc-FGFR4): 11.6 nM
- IC50 (6His-Fc-FGFR1c): 4.95 nM
B21: Ab25 (antibody, human IgG2, kappa, V domains shown)
VH: B1 VH with R102L, Y104F, P105T
VL: B1 VL with T24K
notes: as for B1

- IC50 of pERK inhibition (AlphaScreen SureFire) in NCI-H1581 cells (FGFR1 on tumour cells): 1.31 nM
- IC50 (6His-Fc-FGFR4): 9.96 nM
- IC50 (6His-Fc-FGFR1c): 5.54 nM
B22: Ab21 (antibody, human IgG2, kappa, V domains shown)
VH: B1 VH with R102L, Y104W
VL: B1 VL with T24K
notes: as for B1

- IC50 (6His-Fc-FGFR4): 8.41 nM
- IC50 (6His-Fc-FGFR1c): 2.8 nM
B24: Ab57 (antibody, human IgG2, kappa, V domains shown)
VH: B1 VH with R102L, Y104F
VL: B1 VL
notes: as for B1
